The text below walks through data of paper PMC12693483, “A screen for synthetic genetic interactions with the Saccharomyces cerevisiae hrq1ΔN allele”.

The target of the series is T1, Hrq1 (Saccharomyces cerevisiae, UniProt Q05549 1-1077).
T1 sequence: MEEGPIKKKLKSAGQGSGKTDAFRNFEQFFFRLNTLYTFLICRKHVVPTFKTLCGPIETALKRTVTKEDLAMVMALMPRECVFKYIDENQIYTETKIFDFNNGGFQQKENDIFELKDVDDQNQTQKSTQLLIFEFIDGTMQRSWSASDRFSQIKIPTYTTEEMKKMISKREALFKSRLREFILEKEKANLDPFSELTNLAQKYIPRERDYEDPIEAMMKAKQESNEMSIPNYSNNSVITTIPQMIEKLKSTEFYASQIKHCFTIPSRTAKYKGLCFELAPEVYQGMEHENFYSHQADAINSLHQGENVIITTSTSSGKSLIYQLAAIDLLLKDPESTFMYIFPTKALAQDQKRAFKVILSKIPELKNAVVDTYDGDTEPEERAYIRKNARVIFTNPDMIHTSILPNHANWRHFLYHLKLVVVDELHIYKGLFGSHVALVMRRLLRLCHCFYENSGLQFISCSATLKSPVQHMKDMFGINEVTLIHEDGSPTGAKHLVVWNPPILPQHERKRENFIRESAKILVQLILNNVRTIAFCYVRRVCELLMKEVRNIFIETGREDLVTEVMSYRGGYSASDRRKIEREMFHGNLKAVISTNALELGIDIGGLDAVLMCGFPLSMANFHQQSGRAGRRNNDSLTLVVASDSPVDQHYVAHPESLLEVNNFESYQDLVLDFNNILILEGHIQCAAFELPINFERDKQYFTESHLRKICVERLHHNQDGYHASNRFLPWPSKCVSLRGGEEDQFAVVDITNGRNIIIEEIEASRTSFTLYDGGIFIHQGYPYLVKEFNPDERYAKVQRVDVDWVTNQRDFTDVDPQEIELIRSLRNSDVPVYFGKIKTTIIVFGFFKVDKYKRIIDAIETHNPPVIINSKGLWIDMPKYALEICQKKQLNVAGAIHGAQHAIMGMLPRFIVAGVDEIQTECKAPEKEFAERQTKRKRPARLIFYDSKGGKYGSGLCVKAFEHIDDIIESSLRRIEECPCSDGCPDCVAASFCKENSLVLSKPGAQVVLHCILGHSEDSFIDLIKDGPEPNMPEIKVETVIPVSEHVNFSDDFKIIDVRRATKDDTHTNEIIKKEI
As to the kind of experiment: EMSA; 0.2-5 nM protein; 7.5 mM MgOAc; no ATP stated; EMSA: 0.1 nM labelled DNA, 25 mM Na-HEPES pH 8.0, 5% glycerol, 50 mM NaOAc pH 7.6, 150 µM NaCl, 7.5 mM MgOAc, 0.01% Tween-20, 30 min at 30 °C; 8% 19:1 gel in 1x TBE. The settings on record: protein: recombinant; label: 5'-32P; single strand.

Consider TTTTTTTTTTTTTTTTTTTTTTTTTTTTTT (ssDNA) [poly(dT) 30mer], for which the binding result is recorded as “binds”.
